The text below walks through data of the supplement of paper PMC10724198.

± gives the standard deviation of the averaged measurements.
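Further: PSI is a weighted mean of sequencing reads over stability bins, variants kept only with over 10 reads, mCherry proximal and sfGFP distal, peptide attached via GGGS linker.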

This data set has as its system Saccharomyces cerevisiae. The data set can be described thus: protein stability index of tFT-peptide fusion (C-terminal peptide) (PSI (0-1 scale)); higher = more stable (slower turnover). The following applies: genetic background: wild type; temperature: 30 C.
Take LLRPPARPPHPR: the protein stability index amounted to 0.746 ± 0.008.

LLRVYNQNGERN came in with a protein stability index of 0.734 ± 0.044.

For the sequence LLRWEPNYTENL, the protein stability index amounted to 0.796 ± 0.028.

For LLRYAPSALPLP, the protein stability index was 0.6683 ± 0.0031.

LLSAPFRSFFTL had a protein stability index of 0.5548 ± 0.0046.

In turn, LLSAVVDHTHLQ showed a protein stability index of 0.664 ± 0.07.

Sequence LLSCVRSHPDAP displayed a protein stability index of 0.702 ± 0.073.

Sequence LLSLATPHPSAL showed a protein stability index of 0.714 ± 0.045.

For the sequence LLSLMCYCWFGV, the protein stability index worked out at 0.5088 ± 0.0011.

LLSPDAALGRLF: the protein stability index is 0.692 ± 0.025.

Turning to LLSPFLPPPLFV, the protein stability index is 0.563 ± 0.019.

The sequence LLSPPPTPFPLP came in with a protein stability index of 0.666 ± 0.061.

On to LLSRCAGLMWSF, for which the protein stability index is 0.679 ± 0.0098.

For the sequence LLSRQEWMTGRS, the protein stability index was determined as 0.673 ± 0.031.

The sequence LLTWENWVVPRL showed a protein stability index of 0.738 ± 0.053.

LLVLFRWSGIPG had a protein stability index of 0.552 ± 0.034.

In turn, LLVLGHVCAANF displayed a protein stability index of 0.601 ± 0.0094.

Sequence LLVMRGMRGCGT yielded a protein stability index of 0.681 ± 0.056.

LLVMRRHRFLRL showed a protein stability index of 0.624 ± 0.051.

In turn, LLVNLNINYFKR came in with a protein stability index of 0.689 ± 0.018.

For the sequence LLWCPLRSIGLS, the protein stability index was determined as 0.696 ± 0.044.

Turning to LLWPSPAISLPT, the protein stability index came to 0.722 ± 0.021.

The sequence LMAGPRLCSPLR yielded a protein stability index of 0.634 ± 0.033.

Consider LMCGPARSPLTT, for which the protein stability index amounted to 0.6701 ± 0.00098.

For the sequence LMFPLPLRSFPF, the protein stability index was 0.6931 ± 0.0014.

For LNHQSSVHLNTP, the protein stability index was 0.732 ± 0.034.

LNTTKTFCSPCL: the protein stability index worked out at 0.692 ± 0.081.

Take LPACVVVRYCRF: the protein stability index is 0.637 ± 0.12.

In turn, LPAPLHPPPSQP displayed a protein stability index of 0.638 ± 0.014.

Take LPAPPAPLTFPG: the protein stability index was 0.687 ± 0.021.

LPASLPPPPPPY came in with a protein stability index of 0.756 ± 0.058.

As for LPCGPRGLTRPP, the protein stability index turned out to be 0.661 ± 0.0091.

For LPDSYAVVPPTS, the protein stability index was 0.642 ± 0.068.

With LPDVFLSSFFCL, the protein stability index was 0.709 ± 0.027.

The sequence LPFCLPAPLPPP came in with a protein stability index of 0.708 ± 0.04.

LPFFFPRLFSPP came in with a protein stability index of 0.691 ± 0.061.

LPFPSPLPSPPP yielded a protein stability index of 0.702 ± 0.035.

In turn, LPGSVLLFPSFS returned a protein stability index of 0.747 ± 0.035.

Sequence LPHLFPSTPPAS returned a protein stability index of 0.723 ± 0.025.

In turn, LPHSYFCPTFFF had a protein stability index of 0.675 ± 0.019.

For LPIKRLPLPTVP, the protein stability index amounted to 0.682 ± 0.015.

Regarding LPIKRLWKGLHG, the protein stability index was 0.652 ± 0.1.

Regarding LPLGSTVVSGES, the protein stability index worked out at 0.632 ± 0.034.

For LPLHHYAHKFDL, the protein stability index was found to be 0.746 ± 0.1.

LPLIISTNYTPD registered a protein stability index of 0.723 ± 0.11.

In turn, LPLPLPWHSCPP displayed a protein stability index of 0.721 ± 0.029.

For the sequence LPLPVPPPPLPS, the protein stability index was 0.654 ± 0.034.

Consider LPLRYFSFPDPF, for which the protein stability index was found to be 0.6949 ± 0.0035.

LPPAPAPPQCST gave a protein stability index of 0.675 ± 0.052.

With LPPCAPPLPPSS, the protein stability index came to 0.706 ± 0.067.

In the case of LPPFFPLLSPPF, the protein stability index amounted to 0.664 ± 0.031.

LPPFPRPPPPSP: the protein stability index is 0.719 ± 0.029.

Sequence LPPGIPLRSSPP had a protein stability index of 0.683 ± 0.022.

LPPLLPPFHPPR had a protein stability index of 0.701 ± 0.06.

As to LPPLPPRSPPPP, the protein stability index came out at 0.731 ± 0.02.

With LPPLRVIANIRG, the protein stability index came to 0.659 ± 0.019.

Take LPPPAPPSSFPP: the protein stability index came to 0.661 ± 0.056.

Take LPPPIPPPLSLA: the protein stability index came to 0.703 ± 0.013.

In turn, LPPPLPPSLRLR yielded a protein stability index of 0.602 ± 0.083.

Take LPPPPLTTLLHT: the protein stability index is 0.604 ± 0.043.

LPPPPRPLPRSL had a protein stability index of 0.732 ± 0.018.

Consider LPPPRPTRSPTH, for which the protein stability index was found to be 0.617 ± 0.034.

Turning to LPPRIPRPDVSF, the protein stability index is 0.72 ± 0.0075.

The sequence LPPRPPESLHLP returned a protein stability index of 0.724 ± 0.03.

As for LPPRPPRRPESP, the protein stability index worked out at 0.663 ± 0.055.

As to LPPSLPTHLSHP, the protein stability index came to 0.7629 ± 0.0041.

In the case of LPPSPPPFPPLP, the protein stability index came to 0.642 ± 0.011.

Turning to LPPTHPPPPPAL, the protein stability index worked out at 0.7 ± 0.045.

LPPVLPLLPSPP returned a protein stability index of 0.692 ± 0.044.

For LPQVKLGRIYTY, the protein stability index came out at 0.683 ± 0.032.

For LPQVYSGIMRFV, the protein stability index was 0.6243 ± 0.0036.

As to LPRFAPPNPALP, the protein stability index came out at 0.658 ± 0.071.

LPRGLRAISCVE yielded a protein stability index of 0.569 ± 0.024.

In the case of LPRPPPPPPPPP, the protein stability index is 0.759 ± 0.042.

LPRSLSGCGAGV gave a protein stability index of 0.711 ± 0.015.

In turn, LPRSSGSTTPYP showed a protein stability index of 0.688 ± 0.025.

Consider LPSKSTVALGPL, for which the protein stability index was determined as 0.633 ± 0.046.

In turn, LPSPSATPPRPP yielded a protein stability index of 0.634 ± 0.034.

LPSPSPPPPLLL showed a protein stability index of 0.677 ± 0.015.

LPSPSPPPPLLP displayed a protein stability index of 0.743 ± 0.022.
